Measured values published in paper PMC5906681, “BRI1 and BAK1 interact with G proteins and regulate sugar-responsive growth and development in Arabidopsis” (Nature Communications, 2018).
Blank lines part the entries; values can stand above or below the binder they belong to.

Molecular target: T1, GST-fused BRI1 kinase domain (Arabidopsis, UniProt O22476 814-1196)
T1 construct: BRASSINOSTEROID … 1 (BRI1), Arabidopsis, kinase domain, residues 814-1196; also called GST-BRI1-KD; BRI1-KD; source: E. coli (pGEX-4T-1); not shown: GST, N-terminal, kept
T1 sequence (looked up): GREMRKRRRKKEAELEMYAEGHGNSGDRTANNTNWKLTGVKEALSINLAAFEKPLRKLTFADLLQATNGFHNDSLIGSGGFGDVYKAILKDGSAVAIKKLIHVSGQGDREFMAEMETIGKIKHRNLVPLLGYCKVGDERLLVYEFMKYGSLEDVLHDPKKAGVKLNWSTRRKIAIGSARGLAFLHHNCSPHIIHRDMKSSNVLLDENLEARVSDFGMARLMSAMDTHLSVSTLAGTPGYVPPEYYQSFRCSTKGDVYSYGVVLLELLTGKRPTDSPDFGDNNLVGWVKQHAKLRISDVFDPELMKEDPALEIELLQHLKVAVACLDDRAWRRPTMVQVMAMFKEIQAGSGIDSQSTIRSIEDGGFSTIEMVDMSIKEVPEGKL
Test: pull-down; about 15 μg GST fusion with about 30 μg MBP fusion in 900 μL TGH buffer (10% glycerol, 1% Triton X-100, 1.5 mM MgCl2, 150 mM NaCl, 1 mM EGTA, 50 mM HEPES, pH 7.5); 30 μL GST beads, about 1 h; immunoblot with anti-MBP and anti-GST
Details: both partners purified

binding result: binds
B3: MBP-AGB1 (natural protein, Arabidopsis, UniProt P49177 1-377, looked up)
chain: MSVSELKERHAVATETVNNLRDQLRQRRLQLLDTDVARYSAAQGRTRVSFGATDLVCCRTLQGHTGKVYSLDWTPERNRIVSASQDGRLIVWNALTSQKTHAIKLPCAWVMTCAFSPNGQSVACGGLDSVCSIFSLSSTADKDGTVPVSRMLTGHRGYVSCCQYVPNEDAHLITSSGDQTCILWDVTTGLKTSVFGGEFQSGHTADVLSVSISGSNPNWFISGSCDSTARLWDTRAASRAVRTFHGHEGDVNTVKFFPDGYRFGTGSDDGTCRLYDIRTGHQLQVYQPHGDGENGPVTSIAFSVSGRLLFAGYASNNTCYVWDTLLGEVVLDLGLQQDSHRNRISCLGLSADGSALCTGSWDSNLKIWAFGGHRRVI
notes: AGB1, Arabidopsis G protein beta subunit; Cloned into the EcoR I and Pst I sites of pMAL-c2; also called G protein beta subunit; source: E. coli (pMAL-c2); not shown: MBP, N-terminal, kept

binding result: binds
B4: MBP-AGG2 (natural protein, Arabidopsis, UniProt Q93V47 1-100, looked up)
chain: MEAGSSNSSGQLSGRVVDTRGKHRIQAELKRLEQEARFLEEELEQLEKMDNASASCKEFLDSVDSKPDPLLPETTGPVNATWDQWFEGPKEAKRCGCSIL
notes: AGG2, Arabidopsis G protein gamma subunit 2; also called G protein gamma subunit; source: E. coli (pMAL-c2); not shown: MBP, N-terminal, kept

Further lines, the binder ahead of its results:

B1: MBP-AGG3 (natural protein, Arabidopsis, UniProt Q6AWT8 1-251, looked up)
chain: MSAPSGGGEGGGKESAAGGVSSSSLAPSSLPPPRPKSPPEYPDLYGKRREAARVQMLEREIGFLEGEIKFIEGVQPASRCIKEVSDFVVANSDPLIPAQRKSRRSFRFWKWLCGPCLSLVSFCCCCQSKCSCHLRKPKCCNCTSCSCIGSKCCDGSCCSNICCCPRLSCPSCSCFRGCWCSCPDMSCCIPSCFRSCSCTRPSCLNKKKSSCCSCNCKIRWSSCFSCPKVRLCSCCFCNCKNLCSNPCCLAF
notes: AGG3, Arabidopsis G protein gamma subunit 3; also called G protein gamma subunit; source: E. coli (pMAL-c2); not shown: MBP, N-terminal, kept
binding result: binds

B2: MBP-AGG1 (natural protein, Arabidopsis, UniProt Q9FDX9 1-98, looked up)
chain: MREETVVYEQEESVSHGGGKHRILAELARVEQEVAFLEKELKEVENTDIVSTVCEELLSVIEKGPDPLLPLTNGPLNLGWDRWFEGPNGGEGCRCLIL
notes: AGG1, Arabidopsis G protein gamma subunit 1; also called G protein gamma subunit; source: E. coli (pMAL-c2); not shown: MBP, N-terminal, kept
binding result: binds
